Earlier results as cited in article PMC10103170.
pKd: −log10 of the molar value.

Target: Ubiquitin (Homo sapiens) (UniProt P0CG48)

ALIX V domain, sequence (Q8WUM4 360-702): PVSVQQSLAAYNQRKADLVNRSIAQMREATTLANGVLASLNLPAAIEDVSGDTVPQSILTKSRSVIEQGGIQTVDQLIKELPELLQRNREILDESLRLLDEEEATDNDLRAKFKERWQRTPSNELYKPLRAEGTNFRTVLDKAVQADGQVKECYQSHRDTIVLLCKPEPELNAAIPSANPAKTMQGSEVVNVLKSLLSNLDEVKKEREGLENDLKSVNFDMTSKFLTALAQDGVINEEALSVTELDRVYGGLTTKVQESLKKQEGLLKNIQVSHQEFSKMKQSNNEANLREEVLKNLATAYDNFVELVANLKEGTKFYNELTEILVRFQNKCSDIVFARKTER

ALIX V domain (from UniProt Q8WUM4)
pKd: 3.92
